B1: ZNF449 (parent)
chain: HTGERPYECTVCKKRFTRRSHLIG

Variants of: B1
Assay: protein stability index of a GFP-peptide fusion (GPS, HEK-293T) (PSI 1-6); higher = more stable
Conditions: c terminus: a fixed tail appended
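Further: lentivirally expressed fusions sorted by FACS into six bins by GFP to DsRed ratio, PSI derived from sequencing read proportions per bin multiplied by bin number.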

Protein stability index, by site and new letter:
S20: A 1.44, P 2.31, M 2.21, K 2.26, Q 1.88, W 3.27, G 2.47, F 1.9, V 1.99, L 2.44, R 2.9, E 2.53, D 2.46, Y 3.34, N 2.69, I 1.57, T 2.18, H 2.37, C 1.86
T17: W 2.03, F 1.51, P 1.78, S 1.94, G 1.82, R 2.95, M 1.22, D 1.9, V 1.92, K 2.52, E 2.63, N 2.21, L 2.19, C 4.7, I 2.3, H 3.25, A 2.19
C9: P 3.7, A 3.85, M 2.8, L 2.83, W 3.62, G 3.94, H 3.03, D 4.05, Y 3.67, K 3.97, V 3.01, R 3.99, F 2.39, N 3.63, S 3.69, Q 3.64, E 3.31, T 3.14, I 3.17
C12: V 2.76, R 3.79, M 4.64, Y 3.2, L 1.55, H 3.73, W 1.86, F 3.01, S 3.39, I 3.31, P 3.06, D 3.99, K 3.98, N 3.42
Y7: H 2.06, M 2.11, L 3.39, W 1.4, G 2.01, S 2.28, F 1.44, E 2.88, D 2.6, A 2.8, R 2.12, C 3.74, K 2.44, T 2.71, P 2.07, Q 2.21, I 2.62
G24: V 1.6, C 2.48, E 1.92, M 1.83, F 1.2, W 2.53, A 2.27, S 2.61, N 2.39, H 1.89, P 1.95, T 2.45, D 2.81, Y 2.9, R 2.39, K 3.12
R18: W 2.33, A 2.13, L 1.74, I 2.7, F 2.18, D 2.88, K 1.97, T 1.97, P 1.91, S 2.5, V 1.59, C 2.97, N 1.62, Q 1.81, H 1.76, M 1.5, G 2.12
R19: H 1.96, G 2.22, W 2.52, T 1.84, L 1.53, I 1.39, C 4.07, Q 2.34, M 1.53, S 2.76, D 1.62, P 1.94, A 1.71, Y 2.1, E 2.01, K 2.54
I23: F 2.42, Y 2.42, W 2.62, G 1.81, L 2, D 2.8, K 4.19, C 3.61, S 2.55, R 3.41, H 3.06, P 2.23, T 2.41, M 1.7, A 2.64
R15: D 2.09, Y 1.09, V 2.16, Q 1.79, S 1.52, E 2.04, F 1.72, K 2.52, T 2.52, C 2.23, A 1.99, I 2.1, W 2.56, L 1.39, M 2.51, N 2.58, H 3.03

— the supplement of paper PMC10567573
